Test results published in US20230382970A1 (HANMI PHARM, published 2023).
Bridge positions count the residues as written; N and C are the ends. Square brackets hold non-standard residues; d marks the D form. Ends that are not written are not given here. * marks the point of attachment. Desaminotyrosyl = O=C(CCc1ccc(O)cc1)*; Aib = CC(C)(N)C(=O)O

B1: GLP-1/GIP dual agonist of SEQ ID NO: 23 (peptide)
peptide: Y[Aib]EGTFTSDYSKYLDEQAAKEFVQWLLDQHPSSGAPPPSC
modifications: bridge 16-20
B2: GLP-1/GIP dual agonist of SEQ ID NO: 25 (peptide)
peptide: Y[Aib]EGTFTSDYSKYLDEEAVKLFVQWLLDQHPSSGAPPPSC
modifications: bridge 16-20
B3: GLP-1/GIP dual agonist of SEQ ID NO: 30 (peptide)
peptide: Y[Aib]EGTFTSDYSI[Aib]LDKQAA[Aib]EFVNWLL[Aib]GHPSSGAPPPSC
B4: GLP-1/GIP dual agonist of SEQ ID NO: 31 (peptide)
peptide: [Desaminotyrosyl][Aib]EGTFTSDYSI[Aib]LDKIAQRAFVQWLIAGGPSSGAPPPSK
B5: GLP-1/GIP dual agonist of SEQ ID NO: 24 (peptide)
peptide: Y[Aib]EGTFTSDYSKYLDEIAQKDFVQWLLDQHPSSGAPPPSC
modifications: bridge 16-20
B6: GLP-1/GIP dual agonist of SEQ ID NO: 11 (peptide)
peptide: Y[Aib]EGTFTSDYSRYLDERASKDFVQWLLDHHPSSGQPPPSK
modifications: bridge 16-20
B7: GLP-1/GIP dual agonist of SEQ ID NO: 8 (peptide)
peptide: Y[Aib]EGTFTSDYSKYLDERASKDFVQWLLDHHPSSGQPPPSC
modifications: bridge 16-20; also: ring type not given here
B8: GLP-1/GIP dual agonist of SEQ ID NO: 27 (peptide)
peptide: Y[Aib]EGTFTSDYSIAMDAIAQQDFVNWLLAQRGKKSDWKHNITQC
B9: GLP-1/GIP dual agonist of SEQ ID NO: 10 (peptide)
peptide: Y[Aib]EGTFTSDYSRYLDERAQKDFVQWLLDHHPSSGQPPPSK
modifications: bridge 16-20
B10: GLP-1/GIP dual agonist of SEQ ID NO: 13 (peptide)
peptide: Y[Aib]EGTFTSDYSEYMEKEAVREFISWLVRGGPSSGAPPPSK
modifications: bridge 12-16
B11: GLP-1/GIP dual agonist of SEQ ID NO: 28 (peptide)
peptide: Y[Aib]EGTFTSDYSIALEKQAQQDFVNWLLAGGPSSGAPPPSC
B12: GLP-1/GIP dual agonist of SEQ ID NO: 14 (peptide)
peptide: H[Aib]EGTFTSDYSKYLDKKRQ[Aib]EFVQWLLNGGPSSGAPPPSC
B13: GLP-1/GIP dual agonist of SEQ ID NO: 15 (peptide)
peptide: Y[Aib]EGTFTSDYSIYLDERACKDFVQWLLDHHPSSGQPPPSYK
modifications: bridge 16-20
B14: GLP-1/GIP dual agonist of SEQ ID NO: 12 (peptide)
peptide: Y[Aib]EGTFTSDYSEYMEKEAVREFIAWLVRGGPSSGAPPPSK
modifications: bridge 12-16
B15: GLP-1/GIP dual agonist of SEQ ID NO: 22 (peptide)
peptide: Y[Aib]EGTFTSDYSKYLDEKAAKEFVQWLLDQHPSSGQPPPSC
modifications: bridge 16-20
B16: GLP-1/GIP dual agonist of SEQ ID NO: 19 (peptide)
peptide: Y[Aib]EGTFTSDYSIYLDKQAA[Aib]AFVQWLIAGGPSSGAPPPSC

biological target: human GLP-1 receptor (human, UniProt P43220 24-463); assay: cell-based or functional assay

| Binder | In vitro activity (%) compared to native-type peptide, vs human GLP-1 (cAMP EC50, human GLP-1 receptor-expressing CHO cells) |
| --- | --- |
| B1 | 13.5% |
| B2 | 3.2% |
| B3 | 1% |
| B4 | 93.3% |
| B5 | 7.3% |
| B6 | 95% |
| B7 | 35.9% |
| B8 | 0.2% |
| B9 | 108% |
| B10 | 116% |
| B11 | 6.7% |
| B12 | 160% |
| B13 | 97.5% |
| B14 | 110% |
| B15 | 41.1% |
| B16 | 32.8% |

biological target: T1, human GIP receptor (human, UniProt P48546 22-466); assay: cell-based or functional assay
T1 sequence (looked up): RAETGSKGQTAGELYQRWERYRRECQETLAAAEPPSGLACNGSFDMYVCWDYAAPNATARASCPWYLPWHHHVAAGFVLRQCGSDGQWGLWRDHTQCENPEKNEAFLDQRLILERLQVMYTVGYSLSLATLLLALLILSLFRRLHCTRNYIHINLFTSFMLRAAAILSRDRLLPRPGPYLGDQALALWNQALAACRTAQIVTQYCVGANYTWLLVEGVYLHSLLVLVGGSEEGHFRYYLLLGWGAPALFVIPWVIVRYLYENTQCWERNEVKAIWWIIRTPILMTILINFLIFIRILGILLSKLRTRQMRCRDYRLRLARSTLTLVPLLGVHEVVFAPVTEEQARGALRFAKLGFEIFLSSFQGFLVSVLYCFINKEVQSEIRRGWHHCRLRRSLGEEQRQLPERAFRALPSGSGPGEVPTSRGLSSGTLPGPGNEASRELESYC

| Binder | In vitro activity (%) compared to native-type peptide, vs human GIP (cAMP EC50, human GIP receptor-expressing CHO cells) |
| --- | --- |
| B1 | 106% |
| B2 | 59.4% |
| B3 | 63.4% |
| B4 | 38.3% |
| B5 | 83.9% |
| B7 | 29.2% |
| B8 | 55.5% |
| B11 | 146% |
| B12 | 0.3% |
| B13 | 64.4% |
| B15 | 39.6% |
| B16 | 13.9% |
